Results reported in patent publication US20170362324A1 (Biogen, published 2017).
Read-outs that look alike come from different tables or passages of the source.

Key:
[1] = molecular target: T1, human soluble αvβ5 protein (extracellular domains of human αv and β5 integrin subunits) (human, UniProt P06756 31-992; P18084 24-719); assay: ELISA, Fab blocking of 2 nM soluble αvβ5 binding to immobilized human plasma vitronectin
T1 construct: also called biotin-αvβ5; hsαvβ5
Description: Fab fragments of the four constructs of Example 6 were generated from the corresponding IgG1(N297Q) versions by digestion with papain. The ability of each Fab to block 2 nM soluble αvβ5 binding to immobilized human plasma vitronectin was determined by ELISA.

[2] = molecular target: T2, human αvβ5 expressed on BaF3 cells (stably transfected with human αv and β5 subunits) (human, UniProt P06756 31-1048; P18084 24-799); assay: FACS on αvβ5-BaF3 cells, unpurified antibody
T2 construct: also called αvβ5-BaF3; BaF3-hu αvβ5
T2 sequence (P06756 31-1048 limits assumed, chain 1 of 2): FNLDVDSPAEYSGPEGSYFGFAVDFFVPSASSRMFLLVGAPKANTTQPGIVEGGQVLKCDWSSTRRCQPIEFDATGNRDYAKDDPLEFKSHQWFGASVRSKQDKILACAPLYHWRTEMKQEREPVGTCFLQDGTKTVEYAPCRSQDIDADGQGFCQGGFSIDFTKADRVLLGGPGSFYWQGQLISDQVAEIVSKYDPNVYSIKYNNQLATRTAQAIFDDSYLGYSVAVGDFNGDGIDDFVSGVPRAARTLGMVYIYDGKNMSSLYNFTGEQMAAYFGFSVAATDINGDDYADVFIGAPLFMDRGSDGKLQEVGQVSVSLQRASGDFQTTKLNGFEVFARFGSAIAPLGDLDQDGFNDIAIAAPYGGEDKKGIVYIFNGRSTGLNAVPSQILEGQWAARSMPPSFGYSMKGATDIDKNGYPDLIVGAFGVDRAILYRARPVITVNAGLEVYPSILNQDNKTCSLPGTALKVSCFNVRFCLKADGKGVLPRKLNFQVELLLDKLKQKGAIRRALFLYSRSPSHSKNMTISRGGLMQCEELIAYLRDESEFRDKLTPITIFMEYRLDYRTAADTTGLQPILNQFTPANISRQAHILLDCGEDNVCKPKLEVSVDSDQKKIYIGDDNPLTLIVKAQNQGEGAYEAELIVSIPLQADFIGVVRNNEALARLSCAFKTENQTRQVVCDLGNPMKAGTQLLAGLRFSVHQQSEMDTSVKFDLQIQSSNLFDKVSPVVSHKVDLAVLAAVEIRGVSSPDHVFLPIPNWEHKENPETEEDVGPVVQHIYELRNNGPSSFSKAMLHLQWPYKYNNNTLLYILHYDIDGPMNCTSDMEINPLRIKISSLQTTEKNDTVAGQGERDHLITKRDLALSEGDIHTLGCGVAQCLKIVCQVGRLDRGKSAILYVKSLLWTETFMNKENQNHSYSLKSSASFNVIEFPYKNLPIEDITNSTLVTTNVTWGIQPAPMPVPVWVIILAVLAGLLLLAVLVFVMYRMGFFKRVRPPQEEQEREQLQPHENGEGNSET
T2 sequence (P18084 24-799 limits assumed, chain 2 of 2): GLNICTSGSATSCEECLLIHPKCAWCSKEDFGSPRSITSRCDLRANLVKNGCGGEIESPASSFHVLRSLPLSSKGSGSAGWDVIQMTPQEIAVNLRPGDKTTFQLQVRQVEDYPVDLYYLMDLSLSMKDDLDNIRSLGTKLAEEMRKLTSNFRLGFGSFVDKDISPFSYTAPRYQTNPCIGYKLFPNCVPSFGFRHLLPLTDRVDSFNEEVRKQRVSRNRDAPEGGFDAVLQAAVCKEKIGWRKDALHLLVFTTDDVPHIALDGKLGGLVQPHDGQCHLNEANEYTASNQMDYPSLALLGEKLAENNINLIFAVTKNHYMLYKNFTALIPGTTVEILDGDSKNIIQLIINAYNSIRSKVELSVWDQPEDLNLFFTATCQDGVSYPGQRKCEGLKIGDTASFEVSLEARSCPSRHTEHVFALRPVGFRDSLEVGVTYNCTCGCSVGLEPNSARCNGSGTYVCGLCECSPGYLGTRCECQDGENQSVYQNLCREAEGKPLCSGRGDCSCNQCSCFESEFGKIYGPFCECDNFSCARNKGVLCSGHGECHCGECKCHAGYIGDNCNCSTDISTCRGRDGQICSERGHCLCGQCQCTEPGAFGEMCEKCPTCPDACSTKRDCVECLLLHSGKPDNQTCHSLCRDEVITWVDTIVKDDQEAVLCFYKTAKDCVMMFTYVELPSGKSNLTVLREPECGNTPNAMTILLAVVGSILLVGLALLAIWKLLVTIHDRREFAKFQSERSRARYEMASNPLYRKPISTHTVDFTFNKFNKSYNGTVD
Description: FACS Binding Assay: Cells were washed one time in PBS, and then resuspended in FACS buffer (1×PBS, 1% BSA, 1 mM CaCl₂, and 1 mM MgCl₂). 1×10⁶ cells were then incubated on ice for 1 hr in FACS buffer containing the test antibody in a total volume of 50 μl. After incubation, the cells were washed two times with ice cold FACS buffer, resuspended in 50 μl of FACS buffer containing 3 μg/ml goat anti-mouse IgG AlexaFluor488 (Jackson ImmunoResearch), and incubated on ice for 30 min. The cells were then washed twice with ice cold FACS buffer and fixed in 1% PFA overnight. Cell aggregates were removed by filtering through 40 μm filter plates (Millipore) and binding of the labeled secondary antibody was monitored by flow cytometry using a FACS Calibur (BD Biosciences).
(§1) Screening of all combinations of heavy chain versions VH0, VH1, VH2, VH3, VH4, or VH5, with light chains VL0, VL1, VL2, or VL3 was carried out using unpurified proteins in conditioned cell media. The binding of each construct to biotin-conjugated human αvβ5 protein was determined using a solid-phase binding assay (ELISA) and by FACS, and the ability of each construct to block ligand binding was determined using a vitronectin cell adhesion assay (Table 1).

[3] = molecular target: T2, human αvβ5 expressed on BaF3 cells …; assay: cell-based or functional assay
[4] = molecular target: T1, human soluble αvβ5 protein …; assay: competition ELISA against 1 nM murine ALULA on coated soluble human αvβ5
Description: Competition ELISA: A 96-well microtiter plate was coated with 50 μl/well of 5 μg/mL soluble human αvβ5 protein at 4° C. overnight. The plate was washed with wash buffer (0.05% Tween-20 in PBS) four times in an automated plate washer. 300 μl/well of 1% BSA in PBS was added and incubated for 1 hr at 25° C. to block nonspecific binding. The plate was washed as above, and dilutions of humanized antibodies mixed with 1 nM murine ALULA in PBS containing 1% BSA, were added (50 μl/well). The plate was incubated for 1 hr at 25° C., washed, and then incubated for 40 minutes with 100 μl/well of […] goat anti-mouse antibody. Bound antibody was detected using 3,3′,5,5′-tetramethylbenzidine (TMB). Binding was indicated by the absorbency measured at 450 nm.
The binding of each construct to soluble, purified human αvβ5 protein was determined by a competition ELISA with murine ALULA (FIG. 4). […] The remaining constructs behaved similarly, with version H4/L2 showing the lowest IC50 value in this assay.

[5] = molecular target: T1, human soluble αvβ5 protein …; assay: ELISA, biotin-αvβ5 on streptavidin plate, unpurified antibody
Description: Solid-Phase αvβ5 Binding Assay (ELISA): A 96-well microtiter plate was precoated with streptavidin (Thermo Scientific Reacti-Bind StreptAvidin Coated High Binding Capacity plate) was used. Biotinylated soluble αvβ5 protein (2 μg/mL) in TBS with 1% BSA was added to the wells, and the plate was incubated for 1 hr at 25° C. The plate was washed with wash buffer (0.05% Tween-20 in PBS), and purified humanized ALULA antibody in TBS containing 1% BSA, 1 mM CaCl2, and 1 mM MgCl2 were added (50 μl/well). The plate was incubated for 1 hr at 25° C., washed, and then incubated for 1 hr with 50 μl/well of […] goat anti-human secondary antibody. Bound antibody was detected using 3,3′,5,5′-tetramethylbenzidine (TMB). Binding was indicated by the absorbency measured at 450 nm.
as §1

[6] = molecular target: T2, human αvβ5 expressed on BaF3 cells …; assay: cell-based or functional assay; remark: listed apart in the source
[7] = molecular target: T1, human soluble αvβ5 protein …; assay: ELISA, inhibition of soluble αvβ5 binding to coated human plasma vitronectin
Description: Vitronectin Inhibition ELISA: 96-well microtiter plates were coated with 5 μg/ml purified human plasma vitronectin diluted in PBS (50 μl/well) at 4° C. overnight. After the coating solution was removed, the plates were blocked with 300 μl/well of 1% BSA/TBS at 25° C. for 1 hr. The plate was washed with wash buffer (0.05% Tween-20 in TBS containing 1 mM CaCl₂ and 1 mM MgCl₂), and dilutions of humanized antibodies mixed with 1 nM soluble αvβ5 protein in TBS containing 1% BSA, 1 mM CaCl₂ and 1 mM MgCl₂ were added (50 μl/well) and incubated at 25° C. for 1 hr. The plate was washed 4 times with wash buffer in an automated plate washer and incubated sequentially with 50 μl/well of the anti-beta5 monoclonal antibody 15F11 (at 0.5 ug/mL) in for 1 hr at 25° C. in TBS containing 1% BSA, 1 mM CaCl₂ and 1 mM MgCl₂. After washing the plate 4 times with wash buffer, 100 μl/well of a 1:5000 dilution of a peroxidase-conjugated goat anti-mouse antibody in TBS containing 1% BSA, 1 mM CaCl₂ and 1 mM MgCl₂ were added and incubated for 1 hr at 25° C. Bound protein was detected using the TMB substrate and indicated by the absorbency measured at 450 nm.
In parallel, the humanized ALULA antibodies were tested in two adhesion assays. One measured the ability of each antibody to inhibit the binding of soluble αvβ5 to purified human plasma vitronectin. In the other assay, the murine BaF3 cell line was stably transfected with human αv and β5 subunits, and the adhesion of these cells to vitronectin was determined using a fluorescence endpoint.

T1 sequence (P06756 31-992 limits assumed, chain 1 of 2): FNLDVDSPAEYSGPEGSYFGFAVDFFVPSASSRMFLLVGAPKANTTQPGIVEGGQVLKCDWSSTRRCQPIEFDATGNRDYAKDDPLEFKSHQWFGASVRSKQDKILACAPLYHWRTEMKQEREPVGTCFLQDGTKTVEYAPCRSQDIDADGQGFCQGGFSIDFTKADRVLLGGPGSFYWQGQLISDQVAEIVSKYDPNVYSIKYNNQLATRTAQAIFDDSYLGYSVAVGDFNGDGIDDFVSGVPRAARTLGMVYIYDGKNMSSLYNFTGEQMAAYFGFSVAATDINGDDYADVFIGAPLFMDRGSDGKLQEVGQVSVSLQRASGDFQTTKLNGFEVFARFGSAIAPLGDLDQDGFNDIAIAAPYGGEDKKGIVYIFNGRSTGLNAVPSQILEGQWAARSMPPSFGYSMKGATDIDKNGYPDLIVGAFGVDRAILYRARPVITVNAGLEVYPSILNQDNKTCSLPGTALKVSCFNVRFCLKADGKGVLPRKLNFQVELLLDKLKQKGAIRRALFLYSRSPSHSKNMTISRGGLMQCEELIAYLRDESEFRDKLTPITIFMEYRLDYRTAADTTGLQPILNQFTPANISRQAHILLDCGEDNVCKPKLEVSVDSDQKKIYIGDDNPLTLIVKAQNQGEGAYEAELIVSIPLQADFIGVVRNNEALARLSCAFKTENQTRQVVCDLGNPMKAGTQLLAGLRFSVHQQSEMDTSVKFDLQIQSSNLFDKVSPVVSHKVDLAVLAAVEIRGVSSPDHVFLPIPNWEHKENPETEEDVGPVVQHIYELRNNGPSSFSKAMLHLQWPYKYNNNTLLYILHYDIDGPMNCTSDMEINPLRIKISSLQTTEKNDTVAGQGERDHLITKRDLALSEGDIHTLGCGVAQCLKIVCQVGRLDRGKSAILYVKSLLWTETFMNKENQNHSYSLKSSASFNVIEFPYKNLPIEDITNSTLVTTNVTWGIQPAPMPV
T1 sequence (P18084 24-719 limits assumed, chain 2 of 2): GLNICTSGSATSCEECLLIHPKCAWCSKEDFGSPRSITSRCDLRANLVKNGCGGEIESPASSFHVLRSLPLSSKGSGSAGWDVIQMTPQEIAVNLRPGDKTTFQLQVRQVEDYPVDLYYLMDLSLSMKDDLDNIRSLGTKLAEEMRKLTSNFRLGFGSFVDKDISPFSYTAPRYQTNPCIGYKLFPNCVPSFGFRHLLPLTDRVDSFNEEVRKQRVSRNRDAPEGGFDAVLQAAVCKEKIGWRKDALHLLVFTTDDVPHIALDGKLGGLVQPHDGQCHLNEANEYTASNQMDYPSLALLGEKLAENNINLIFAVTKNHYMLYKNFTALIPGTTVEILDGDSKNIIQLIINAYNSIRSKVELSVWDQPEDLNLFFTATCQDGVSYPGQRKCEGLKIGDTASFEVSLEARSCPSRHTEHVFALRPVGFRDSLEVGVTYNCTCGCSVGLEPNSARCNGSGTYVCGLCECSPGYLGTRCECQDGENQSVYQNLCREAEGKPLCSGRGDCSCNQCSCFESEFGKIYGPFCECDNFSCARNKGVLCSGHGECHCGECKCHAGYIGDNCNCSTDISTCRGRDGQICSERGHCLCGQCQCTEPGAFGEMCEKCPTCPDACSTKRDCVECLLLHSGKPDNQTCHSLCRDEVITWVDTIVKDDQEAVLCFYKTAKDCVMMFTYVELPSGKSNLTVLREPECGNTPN

Fold change (IC50 against mouse chimeric ALULA) [1]	IC50 [1]	EC50 [2]	VN adhesion inhibition, αvβ5-BaF3 (IC50, nM) [3]	IC50 [4]	EC50 [5]	VN adhesion inhibition, αvβ5-BaF3 (IC50, nM) [6]	IC50 [7]	Binder
1.5 fold	7.3 nM	–	–	–	–	–	–	VH2/VL2 Fab fragment (Fab, V domains shown, also called H2/L2 (Fab source); H2L2 hIgG1 Fab) VH: EVQVVQSGGGLVKPGESLRLSCAASGYTFTSYWMHWVKQAPGKGLEWVGAIYPGNSDTSYNQKFKGKFTISADTSSNTAYLQMNSLKTEDTAVYYCTTTTYGYDWFAYWGQGTLVTVSS VL: NIQMTQSPSSLSASVGDRVTMSCKSSQSVLYSSNQKNYLAWYQQKPGKSPKLLIYWASTRESGVPDRFTGSGSGTDFTLTISSLQPEDFATYYCHQYLSSLTFGQGTKLEIK
1.6 fold	7.5 nM	–	–	–	–	–	–	VH4/VL0 Fab fragment (Fab, V domains shown, also called H4/L0 (Fab source); H4L0 hIgG1 Fab) VH: EVQVVQSGGGLVKPGESLRLSCKASGYTFTSYWMHWVKQAPGKGLEWVGAIYPGNSDTSYNQKFKGKFTISADTSPNTAYLQMNSLKTEDTAVYYCTTTTYGYDWFAYWGQGTLVTVSS VL: DIQMTQSPSSVSASVGDRVTITCKSSQSVLYSSNQKNYLAWYQQKPGKAPKLLIYWASTRESGVPSRFSGSGSGTDFTLTISSLQPEDFATYYCHQYLSSLTFGQGTKVEIK
–	–	147 nM	0.7 nM	3 nM	0.3 nM	163 nM	1.3 nM	VH5/VL1 Agly-hIgG1(T299A) (antibody, V domains shown, also called H5/L1) VH: EVQVQQSGGGLVKPGGSLRLSCKASGYTFTSYWMHWVKQAPGKGLEWVGAIYPGNSDTSYNQKFKGKATLSAVTSPNTAYLQMNSLKTEDTAVYYCTTTTYGYDWFAYWGQGTLVTVSS VL: DIQMTQSPSSLSASVGDRVTMTCKSSQSVLYSSNQKNYLAWYQQKPGKAPKLLIYWASTRESGVPDRFSGSGSGTDFTLTISSLQPEDFATYYCHQYLSSLTFGQGTKLEIK
1.4 fold	6.8 nM	–	–	–	–	–	–	VH5/VL2 Fab fragment (Fab, V domains shown, also called H5/L2 (Fab source); H5L2 hIgG1 Fab) VH: EVQVQQSGGGLVKPGGSLRLSCKASGYTFTSYWMHWVKQAPGKGLEWVGAIYPGNSDTSYNQKFKGKATLSAVTSPNTAYLQMNSLKTEDTAVYYCTTTTYGYDWFAYWGQGTLVTVSS VL: NIQMTQSPSSLSASVGDRVTMSCKSSQSVLYSSNQKNYLAWYQQKPGKSPKLLIYWASTRESGVPDRFTGSGSGTDFTLTISSLQPEDFATYYCHQYLSSLTFGQGTKLEIK
–	–	158 nM	1.1 nM	2 nM	0.3 nM	74.9 nM	1.7 nM	VH4/VL0 Agly-hIgG1(T299A) (antibody, V domains shown, also called H4/L0 (Agly-IgG1)) VH: EVQVVQSGGGLVKPGESLRLSCKASGYTFTSYWMHWVKQAPGKGLEWVGAIYPGNSDTSYNQKFKGKFTISADTSPNTAYLQMNSLKTEDTAVYYCTTTTYGYDWFAYWGQGTLVTVSS VL: DIQMTQSPSSVSASVGDRVTITCKSSQSVLYSSNQKNYLAWYQQKPGKAPKLLIYWASTRESGVPSRFSGSGSGTDFTLTISSLQPEDFATYYCHQYLSSLTFGQGTKVEIK
–	–	156 nM	0.5 nM	1.6 nM	0.4 nM	71.8 nM	0.6 nM	VH4/VL2 Agly-hIgG1(T299A) (antibody, V domains shown, also called H4/L2 (Agly-IgG1)) VH: EVQVVQSGGGLVKPGESLRLSCKASGYTFTSYWMHWVKQAPGKGLEWVGAIYPGNSDTSYNQKFKGKFTISADTSPNTAYLQMNSLKTEDTAVYYCTTTTYGYDWFAYWGQGTLVTVSS VL: NIQMTQSPSSLSASVGDRVTMSCKSSQSVLYSSNQKNYLAWYQQKPGKSPKLLIYWASTRESGVPDRFTGSGSGTDFTLTISSLQPEDFATYYCHQYLSSLTFGQGTKLEIK
–	–	359 nM	0.9 nM	2 nM	0.4 nM	83.2 nM	1.3 nM	VH5/VL2 Agly-hIgG1(T299A) (antibody, V domains shown, also called H5/L2 (Agly-IgG1)) VH: EVQVQQSGGGLVKPGGSLRLSCKASGYTFTSYWMHWVKQAPGKGLEWVGAIYPGNSDTSYNQKFKGKATLSAVTSPNTAYLQMNSLKTEDTAVYYCTTTTYGYDWFAYWGQGTLVTVSS VL: NIQMTQSPSSLSASVGDRVTMSCKSSQSVLYSSNQKNYLAWYQQKPGKSPKLLIYWASTRESGVPDRFTGSGSGTDFTLTISSLQPEDFATYYCHQYLSSLTFGQGTKLEIK
–	–	244 nM	1 nM	2.8 nM	0.4 nM	218 nM	3.1 nM	VH5/VL0 Agly-hIgG1(T299A) (antibody, V domains shown, also called H5/L0) VH: EVQVQQSGGGLVKPGGSLRLSCKASGYTFTSYWMHWVKQAPGKGLEWVGAIYPGNSDTSYNQKFKGKATLSAVTSPNTAYLQMNSLKTEDTAVYYCTTTTYGYDWFAYWGQGTLVTVSS VL: DIQMTQSPSSVSASVGDRVTITCKSSQSVLYSSNQKNYLAWYQQKPGKAPKLLIYWASTRESGVPSRFSGSGSGTDFTLTISSLQPEDFATYYCHQYLSSLTFGQGTKVEIK
–	4.8 nM	–	–	–	–	–	–	Mouse chimeric ALULA Fab fragment (Fab, V domains shown, also called Mouse chimeric ALULA (Fab source)) VH: EVQVQQSGTVLARPGASVKMSCKASGYTFTSYWMHWVKQRPGQGLEWIGAIYPGNSDTSYNQKFKGKAKLTAVTSPNTAYMELSSLTNEDSAVYYCTTTTYGYDWFAYWGQGTLVTVSA VL: NIMMTQSPSSLTVSAGEKVTMSCKSSQSVLYSSNQKNYLAWYQQKPGQSPKLLIYWASTRESGVPDRFTGSGSGTDFTLTISSVQAEDLAVYYCHQYLSSLTFGAGTKLELK
